Reference: doi:10.1101/464131, “Increased association between Epstein-Barr virus EBNA2 from type 2 strains and the transcriptional repressor BS69 restricts B cell growth” (bioRxiv, 2018)
Changes are numbered by the printed parent chain. Numbers in names are those of the source.

T1: BS69 CC-MYND domain (amino acids 480-602) (human, UniProt Q15326-1 480-602)
T1 chain: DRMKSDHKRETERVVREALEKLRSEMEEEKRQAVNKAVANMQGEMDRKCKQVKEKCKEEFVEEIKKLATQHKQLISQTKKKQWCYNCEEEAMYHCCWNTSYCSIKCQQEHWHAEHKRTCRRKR

B1: type 2 EBNA2 motif 2 peptide (402-412) (peptide)
peptide: EPPFLFPSDWY
notes: source: synthetic peptide (Peptide Synthetics)
B2: type 2 EBNA2 polypeptide T2 EBNA2_(348-412) (domain or fragment)
chain: SMPQLSPVVSLHQGQGPENSPTPGPSTAGPVCRVTPSATPDISPIHEPESSDSEEPPFLFPSDWY
notes: pET47b+ construct; also called type 2 EBNA2_(348-412); source: E. coli Rosetta 2 (DE3) pLysS, purified (cobalt resin, 3C protease cleavage, Superdex 75); not shown: His6, N-terminal, cleaved
B3: type 2 EBNA2 motif 3 peptide T2 EBNA2_(412-422) (peptide)
peptide: YPPTLEPAELD
notes: as for B1
B4: BS69 CC-MYND domain (amino acids 480-602) (domain or fragment, human, UniProt Q15326-1 480-602, looked up)
chain: T1 chain
notes: BS69 (ZMYND11), human, C-terminal region with the coiled-coil and MYND domains, amino acids 480-602; canonical isoform 1 of 602 amino acids; Dimer by SEC-MALS; Amplified from pCI-BS69 and cloned into pET49b+; also called ZMYND11; source: E. coli Rosetta 2 (DE3) pLysS, purified (cobalt resin, 3C protease cleavage, Superdex 75); not shown: GST, N-terminal, cleaved; His6, N-terminal, cleaved
B5: type 2 EBNA2 polypeptide T2 EBNA2_(348-422) (domain or fragment)
chain: SMPQLSPVVSLHQGQGPENSPTPGPSTAGPVCRVTPSATPDISPIHEPESSDSEEPPFLFPSDWYPPTLEPAELD
notes: pET47b+ construct; Monomer by SEC-MALS; also called type 2 EBNA2_(348-422); source: E. coli Rosetta 2 (DE3) pLysS, purified (cobalt resin, 3C protease cleavage, Superdex 75); not shown: His6, N-terminal, cleaved
B6: EBNA2_(348-422) SD + m3 mt (domain or fragment)
chain: B5 chain with S62D, P67A, L69A, P71A
notes: EBNA2 of type 2 EBV (AG876), amino acids 348-422 with S409D and motif 3 (PTLEP 414-418) mutated to ATAEA; also called T2 EBNA2_(348-422) SD + motif 3 mt; double mutant type 2 EBNA2 polypeptide; source: E. coli Rosetta 2 (DE3) pLysS, purified (cobalt resin, 3C protease cleavage, Superdex 75); not shown: His6, N-terminal, cleaved
B7: T2 EBNA2_(348-422) motif 3 mt (domain or fragment)
chain: B5 chain with P67A, L69A, P71A
notes: EBNA2 of type 2 EBV (AG876), amino acids 348-422, motif 3 (PTLEP 414-418) mutated to ATAEA; source: E. coli Rosetta 2 (DE3) pLysS, purified (cobalt resin, 3C protease cleavage, Superdex 75); not shown: His6, N-terminal, cleaved
B8: T2 EBNA2_(348-422) SD mutant (domain or fragment)
chain: B5 chain with S62D
notes: EBNA2 of type 2 EBV (AG876), amino acids 348-422 with serine 409 changed to aspartate (the position that is 442 in type 1 EBNA2); text and methods print 409; source: E. coli Rosetta 2 (DE3) pLysS, purified (cobalt resin, 3C protease cleavage, Superdex 75); not shown: His6, N-terminal, cleaved
B9: type 1 EBNA2 polypeptide T1 EBNA2_(381-455) (domain or fragment)
chain: SMPELSPVLGLHQGQGAGDSPTPGPSNAAPVCRNSHTATPNVSPIHEPESHNSPEAPILFPDDWYPPSIDPADLD

Tests used:
[1] = target: B4; assay: ITC; EBNA2 peptide (1 mM) titrated into BS69CC-MYND (0.1 mM) in the cell, 13 injections, 25°C, 20 mM Tris-HCl, 100 mM NaCl, 1 mM TCEP, pH 7.5; one-site model with n fixed to 1; details: both partners purified
[2] = target: B4; assay: ITC; EBNA2 polypeptide titrated into BS69CC-MYND (0.1 mM) in the cell, 19 x 2.0 μl injections, 25°C, 20 mM Tris-HCl, 100 mM NaCl, 1 mM TCEP, pH 7.5; one set of sites model; n calculated for monomeric proteins; details: both partners purified
[3] = target: the molecule itself; assay: SEC-MALS; individual proteins, 5 mg/ml, Shodex KW403-4F column, 25°C, 20 mM Tris-HCl, 100 mM NaCl, 1 mM TCEP, pH 7.5
[4] = target: T1, BS69 CC-MYND domain (amino acids …); assay: ITC
[5] = target: B4; assay: ITC; EBNA2 polypeptide titrated into BS69CC-MYND (0.1 mM) in the cell, 29 x 1.3 μl injections, 25°C, 20 mM Tris-HCl, 100 mM NaCl, 1 mM TCEP, pH 7.5; two sets of sites (two event) model; details: both partners purified

## B1
[1]
  Kd: 176000 nM

## B2
[2]
  Kd: 1210 nM
  stoichiometry N: 0.33 molar ratio EBNA2 : BS69CC-MYND monomer

## B3
[1]
  Kd: 219000 nM

## B4
[3]
  stoichiometry N: 2

## B5
[4]
  Kd: 1010 nM
[5]
  dH (second binding event): -1.59 kcal/mol
[2]
  stoichiometry N: 0.15 molar ratio EBNA2 : BS69CC-MYND monomer

## B6
[5]
  dH (second binding event): -9.62 kcal/mol
  fold reduction of the affinity of the second binding event (KD2) against m11: ~2 fold

## B7
[2]
  stoichiometry N: 0.3 molar ratio EBNA2 : BS69CC-MYND monomer

## B8
[5]
  dH (second binding event): -7.65 kcal/mol

## B9
[4]
  Kd: 730 nM
